From paper PMC5435347

Molecular target: YFP-MKT1 (Trypanosoma brucei) (UniProt Q587E3)
Test: co-IP; extracts of bloodstream-form trypanosomes immunoprecipitated with anti-GFP (GBP beads) for YFP-MKT1, Western blot for V5 or myc; 100-150 mM NaCl, 2 h at 4°C; with or without RNase; control cells without YFP-MKT1

Chain of UniProt Q587E3 (Q587E3 whole entry): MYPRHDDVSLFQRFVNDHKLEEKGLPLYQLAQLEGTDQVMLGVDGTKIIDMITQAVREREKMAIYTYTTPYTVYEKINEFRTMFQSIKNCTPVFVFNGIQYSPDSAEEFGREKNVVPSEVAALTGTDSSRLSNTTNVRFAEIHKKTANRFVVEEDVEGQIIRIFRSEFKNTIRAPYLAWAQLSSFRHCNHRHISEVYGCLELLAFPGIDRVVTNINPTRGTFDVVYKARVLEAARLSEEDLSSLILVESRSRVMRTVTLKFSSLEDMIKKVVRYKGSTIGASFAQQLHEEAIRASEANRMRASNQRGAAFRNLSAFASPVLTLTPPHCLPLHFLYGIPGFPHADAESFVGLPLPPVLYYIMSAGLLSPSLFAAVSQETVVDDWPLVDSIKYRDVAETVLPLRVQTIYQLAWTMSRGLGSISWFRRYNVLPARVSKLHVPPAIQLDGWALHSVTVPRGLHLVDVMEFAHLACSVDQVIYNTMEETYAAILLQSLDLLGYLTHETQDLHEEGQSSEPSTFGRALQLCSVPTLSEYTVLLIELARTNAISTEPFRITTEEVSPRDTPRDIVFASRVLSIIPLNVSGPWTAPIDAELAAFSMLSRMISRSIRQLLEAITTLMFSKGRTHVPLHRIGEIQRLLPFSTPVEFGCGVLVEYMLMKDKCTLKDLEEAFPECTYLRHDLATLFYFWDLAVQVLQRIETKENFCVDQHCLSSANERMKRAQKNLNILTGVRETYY

proportion pulled down	Substance
< 1%	V5-ZC3H32 (natural protein)
< 1%	ZC3H32-myc (natural protein)
